In patent publication US20190031754A1 (Scripps Research, published 2019):
Read-outs that look alike come from different tables or passages of the source.

Legend:
Ig [1] = target: T1, Ig; assay: flow cytometry, HEK 293F cells displaying the construct, IgG1 1 µg/mL, APC (binding) against PE (expression); on Vec cells Q2 6.53 and 73.5 in the PE- APC+ quadrant
T1 construct: transmembrane segment; also called HA-Ig

Ig+Fr [2] = target: T2, Ig+Fr (human); assay: as above
T2 construct: two-domain fragment;transmembrane segment; also called HA-Ig+Fr

[3] = target: T3, hROR2-T245 extracellular domain displayed on HEK 293F cells (human, UniProt Q01974 55-394; P09619 513-561); assay: as above
T3 construct: range 55-394;range 513-561; also called complete ECD

[4] = target: T4, anti-human Fc (Jackson ImmunoResearch, 109-006-008); assay: ELISA, IgG titrated on coated anti-human Fc; fit printed as IC50
T4 construct: Coated on a control plate to capture the chimeric IgG1 antibodies through their human Fc; also called IgG

[5] = target: T4, anti-human Fc (Jackson ImmunoResearch, …); assay: as above; remark: listed apart in the source
[6] = target: T5, recombinant human twin strep-tagged ROR2 extracellular domain (human, UniProt Q01974 34-403); assay: ELISA, IgG titrated on coated twin-strep human ROR2 ECD; fit printed as IC50
T5 construct: extracellular domain; Made in HEK293T, Streptactin purified; also called Human ROR2-TwinStrep; human ROR2

[7] = target: T6, recombinant murine twin strep-tagged ROR2 extracellular domain (mouse, UniProt Q9Z138 34-403); assay: ELISA, IgG titrated on coated twin-strep mouse ROR2 ECD; fit printed as IC50
T6 construct: extracellular domain; Made in HEK293T, Streptactin purified; also called mouse ROR2; murine ROR2

[8] = target: T5, recombinant human twin strep-tagged …; assay: ELISA, IgG titrated on coated twin-strep human ROR2 ECD; fit printed as IC50; remark: listed apart in the source
[9] = target: T7, recombinant cynomolgus twin strep-tagged ROR2 extracellular domain (cynomolgus monkey, UniProt A0A7N9D5U8 34-403); assay: ELISA, IgG titrated on coated twin-strep cynomolgus ROR2 ECD; fit printed as IC50
T7 construct: extracellular domain; Made in HEK293T, Streptactin purified; also called cynomolgus ROR2; cynomolgus ROR2-TwinStrep

[10] = target: T5, recombinant human twin strep-tagged …; assay: SPR, Biacore T200, IgG captured by anti-human Fcγ, ROR2-TwinStrep as analyte, 1:1 Langmuir
[11] = target: T7, recombinant cynomolgus twin …; assay: as above
[12] = target: T8, human CD20 on HEK293 cells (Retrogenix array) (human, UniProt P11836 1-297); assay: Retrogenix cell microarray, identical slides of fixed HEK293 cells, AlexaFluor647 anti-human IgG Fc
T8 construct: whole, on cells
T8 sequence (looked up): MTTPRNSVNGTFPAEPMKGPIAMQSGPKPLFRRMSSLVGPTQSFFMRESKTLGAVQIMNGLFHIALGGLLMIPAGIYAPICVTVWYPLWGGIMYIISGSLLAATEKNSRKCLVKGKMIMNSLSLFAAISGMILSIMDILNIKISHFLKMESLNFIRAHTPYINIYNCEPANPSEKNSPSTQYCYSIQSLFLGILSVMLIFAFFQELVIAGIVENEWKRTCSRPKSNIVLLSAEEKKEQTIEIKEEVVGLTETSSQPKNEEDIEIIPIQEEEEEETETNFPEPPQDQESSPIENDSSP

[13] = target: T6, recombinant murine twin strep-tagged …; assay: ELISA on coated twin-strep mouse ROR2 ECD (FIG. 14B); patent's own reading of the ELISA curves on coated mouse ROR2 (FIG. 14, panel B)
Ig [14] = target: T1, Ig; assay: flow cytometry, HEK 293F cells displaying the construct, IgG1 1 µg/mL, APC (binding) against PE (expression); on Vec cells Q2 1.86
Fr = target: T9, Fr (human); assay: as above
T9 construct: isolated domain;transmembrane segment; also called HA-Fr

Ki = target: T10, Ki (human); assay: as above
T10 construct: isolated domain;transmembrane segment; also called HA-Ki

Ig+Fr [15] = target: T2, Ig+Fr; assay: as above
Fr+Ki = Fr+Ki (human); assay: as above
[16] = target: T3, hROR2-T245 extracellular domain …; assay: as above
[17] = target: T11, full-length human ROR2 on cells (human, UniProt Q01974 34-943); assay: flow cytometry, T47D cells (endogenous hROR2), IgG 100 ng/100 µL, anti-human Fc APC
T11 construct: whole, on cells; the cells are named under assay; In the Western blot it is denatured; also called hROR2; cell surface human ROR2

T6 sequence (Q9Z138 other isoform, or with tags, fused parts or gaps): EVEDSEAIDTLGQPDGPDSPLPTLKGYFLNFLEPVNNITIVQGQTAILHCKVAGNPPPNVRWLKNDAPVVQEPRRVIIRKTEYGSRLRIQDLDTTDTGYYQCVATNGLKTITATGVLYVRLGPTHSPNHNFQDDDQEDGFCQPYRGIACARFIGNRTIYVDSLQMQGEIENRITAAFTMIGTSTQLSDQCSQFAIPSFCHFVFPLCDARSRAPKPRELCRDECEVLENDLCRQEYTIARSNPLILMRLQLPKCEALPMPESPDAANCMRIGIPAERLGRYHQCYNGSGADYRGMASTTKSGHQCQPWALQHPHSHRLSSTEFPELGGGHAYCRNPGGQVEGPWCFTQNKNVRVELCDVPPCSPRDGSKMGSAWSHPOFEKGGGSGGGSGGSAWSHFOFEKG
Sequence of Fr+Ki (human) (chain, as listed by the source): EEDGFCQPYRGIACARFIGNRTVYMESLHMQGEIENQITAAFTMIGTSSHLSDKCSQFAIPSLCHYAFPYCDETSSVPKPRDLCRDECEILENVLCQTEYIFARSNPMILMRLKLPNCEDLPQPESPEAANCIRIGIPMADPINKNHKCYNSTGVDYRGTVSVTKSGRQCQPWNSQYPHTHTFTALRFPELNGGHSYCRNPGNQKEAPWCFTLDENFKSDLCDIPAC

B1: IgG1 XBR2-433 (antibody, V domains shown)
VH: QSVKESEGGLFKPTDTLTLTCTVSGFSLSTYGVSWVRQAPGNGLEWIGAIGSSGSANYASWAKDRSTITRNTNLNTVTLKMTSLTAADTATYFCARDGYYSSGWGPYFNIWGPGTLVTISS
VL: SFVLTQPASVQVNLGQTVSLTCTADTLSRSYASWYQQKPGQAPVLLIYRDTSRPSGVPDRFSGSSSGNTATLTISGAQAGDEADYYCATSGGSGSNPQYVFGGGTQLTVTG
Ig [1]
  cells in quadrant Q2 (PE+ APC+): 67%
Ig+Fr [2]
  cells in quadrant Q2 (PE+ APC+): 50.7%
[3]
  cells in quadrant Q2 (PE+ APC+): 90.6%

B2: ERR2-Top35 (mAb130) (antibody, V domains shown)
VH: QSVKESEGGLFKPMDTLTLTCTVSGFSLNTYGVSWVRQAPGNGLEWIGAVGSSGATNYASWAKSRSTITRNTNENTVTLKMTSLTAADTATYFCARDGYYSSGWGPYFSIWGPGTLVTVSS
VL: SFVLTQPASVQVNLGQTVSLTCTAETLRSSYASWYQQKPGQAPVLLIYRDTSRPSGVPDRFSGSSSGNTATLTISGAQAGDEADYYCATSDGSGSRYYVFGGGTQLTVTG
[4]
  IC50: 0.0419 µg/mL
[5]
  IC50: 0.0143 µg/mL
[6]
  IC50: 0.0244 µg/mL
[7]
  IC50: 0.0173 µg/mL
[8]
  IC50: 0.0462 µg/mL
[9]
  IC50: 0.0531 µg/mL

B3: ERR2-302 (mAb004) (antibody, human IgG1, V domains shown)
VH: QKQLVESGGGLVKPGGSLTLTCTVSGFSLSSYAIGWVRQAPGNGLEWIGIINSYGSTYYASWAKSRSTITRNTNLNTVTLKMTSLTAADTATYFCARSPYGYVSAWGYHRLDLWGQGTLVTISS
VL: SYELTQLPSVSVSLGQTARITCGGASIGSKVVHWYQQKPGLAPGLLIYDDDERPSGVPDRFSGSNSGDTATLTISGAQAGDEAEYYCQLWDGSDVVFGGGTQLTVTG
notes: Full-length chimeric rabbit/human IgG1, human IgH-gamma1 and IgL-lambda constant regions; C-terminal tags HC: LPETG-Strep, LC: G5SLPETG-Strep
[4]
  IC50: 0.0322 µg/mL
[5]
  IC50: 0.0134 µg/mL
[6]
  IC50: 0.102 µg/mL
[7]
  IC50: 0.0606 µg/mL
[8]
  IC50: 0.0055 µg/mL
[9]
  IC50: 0.0071 µg/mL
[10]
  Kd: 52.4 nM
  koff: 0.0056 s⁻¹
  kon: 107000 M⁻¹ s⁻¹
[11]
  Kd: 48.6 nM
  koff: 0.00527 s⁻¹
  kon: 108000 M⁻¹ s⁻¹

B4: chimeric rabbit/human IgG1 XBR2-401 (antibody, V domains shown)
VH: QSVKESEGGLFKPTDTLTLTCTVSGFSLSSYGVTWVRQAPGSGLEWIGYINTAGNTYYASWAKSRSTITRNTNENTVTLKMTSLTAADTATYFCARDWTSLNIWGPGTLVTVSS
VL: DPMLTQTPSSTSTAVGDTVTIKCQASQSISSDLSWYQQKPGQRPKLLIYQASTLASGVPSRFKGSGYGTEYTLTISGVQREDAAIYYCLGGYADASYRTAFGGGTKLEIK
[12]
  binding result: no binding (tested: 20 µg/mL)

B5: ERR2-308 (mAb037) (antibody, human IgG1, V domains shown)
VH: QEQLEESGGRLVTPGTPLTLTCAVSGFSLSNYAMGWVRQAPGEGLEYIGWISAGGGAYYASWVNGRFTISKTSSTVDLKMTSLTAADTATYFCARGASNGCDLWGPGTLVTVSS
VL: DPMLTQTPSSVSAVVGGTVTIKCQASQSITSWLSWYQQKPGQPPKLLIYGASHLASGVPSRFKGSGYGTEFTLTISGIQREDAATYYCLGGYSNSDIVFGGGTELEIL
notes: Full-length chimeric rabbit/human IgG1, human IgH-gamma1 and IgL-kappa constant regions; C-terminal tags HC: LPETG-Strep, LC: G5SLPETG-Strep
[4]
  IC50: 0.0336 µg/mL
[5]
  IC50: 0.0167 µg/mL
[6]
  IC50: 0.467 µg/mL
[8]
  IC50: 0.0186 µg/mL
[9]
  IC50: 0.0046 µg/mL
[10]
  Kd: 11.2 nM
  koff: 0.000153 s⁻¹
  kon: 13700 M⁻¹ s⁻¹
[11]
  Kd: 5.4 nM
  koff: 0.000127 s⁻¹
  kon: 23800 M⁻¹ s⁻¹
[13]
  binding result: no binding (tested: 0.5 µg/mL highest concentration)

B6: ERR2-317 (mAb006) (antibody, human IgG1, V domains shown)
VH: QSLEESGGRLVTPGTPLTLTCTASGFSLSSYDMIWVRQAPGKGLEYIGIINAGGNTYYASWAKGRFTISRTSTTVDLKMTSPTTEDTATYFCARGSSWTGDIWGPGTLVTVSS
VL: DPVLTQTPSSTSAAVGGTVTIKCQASQSISSYLSWYQQKPGQPPKQLIYAASTLASGVPSRFKGSGSGTEYTLTISGVQREDAATYYCLGGYASASYQTAFGGGTKVEIK
notes: as for B5
[4]
  IC50: 0.0391 µg/mL
[5]
  IC50: 0.0084 µg/mL
[6]
  IC50: 1.35 µg/mL
[8]
  IC50: 0.0168 µg/mL
[9]
  IC50: 0.019 µg/mL
[13]
  binding result: no binding (tested: 0.5 µg/mL highest concentration)

B7: IgG1 XBR2-416 (antibody, V domains shown)
VH: QEQLEESGGRLVTPGTPLTLTCTVSGFSLSSYWMSWVRQAPGKGLEWIGTITPGGNTDYATWAKARFTVSKTSTTVDLKITSPTTEDTATYFCARGIGGAADLWGPGTLVTISS
VL: AQVLTQTPSSTSAAVGGTVTIKCQASQSISSSDLSWYQQKPGQPPKLLIYATSYLASGVPSRFKGSGSGTEYTLTISGVQREDAATYYCLGGYPNTSYRSAFGGGTKVEIK
notes: also called chimeric rabbit/human IgG1 XBR2-416
Ig [14]
  cells in quadrant Q2 (PE+ APC+): 3.22%
Fr
  cells in quadrant Q2 (PE+ APC+): 4.05%
Ki
  cells in quadrant Q2 (PE+ APC+): 90.2%
Ig+Fr [15]
  cells in quadrant Q2 (PE+ APC+): 3.9%
Fr+Ki
  cells in quadrant Q2 (PE+ APC+): 69.7%
[16]
  cells in quadrant Q2 (PE+ APC+): 55.9%

B8: XBR2-TOP72 (IgG) (antibody, V domains shown)
VH: QEQLEESGGRLVTPGTPLTLTCTVSGIDLSSNAMSWVRQAPGKGLEYVGFINGGGGVHYASWARGRFTISKTSTTVDLKITSPTTEDTATYFCARAGTTYYTSFNLWGPGTLVTISS
VL: QFVLTQSPSASAALGSSAKLTCTLSSAHKTYTIAWYQQQQGEAPRLLMMLRTDGSYTKGTGVPDRFSGSSSGADRYLIISSVQADDAAGYYCGADYSGGYVFGGGTQLTVTG
notes: also called chimeric rabbit/human IgG1 XBR2-TOP72
[17]
  binding result: binds

B9: ERR2-316 (mAb005) (antibody, human IgG1, V domains shown)
VH: QKQLVESGGRLVTPGGSLTLTCTVSGFSLSKYGVSWVRQAPGSGLEYIGTIGGSGTSYYASWAKSRSTITRNTNLNTVTLKMTSLTAADTATYFCARYFGWNTGFDIWGPGTLVTISS
VL: DPVMTQTPSSVSEPVGGTVTIKCQASQSISNALAWYQQKPGQPPKRLIYKASTPASGVPSRFKGSRSGTEYTLTISGVQREDAATYYCLGFSVVSNDGWAFGAGTNVEIK
notes: Full-length chimeric rabbit/human IgG1, human IgH-gamma1 and IgL-kappa constant regions; C-terminal tags HC: LPETG-Strep, LC: G5SLPETG-Strep; also called mAb0005
[4]
  IC50: 0.04 µg/mL
[5]
  IC50: 0.0112 µg/mL
[6]
  IC50: 0.0299 µg/mL
[8]
  IC50: 0.0407 µg/mL
[9]
  IC50: 0.044 µg/mL
[13]
  binding result: no binding (tested: 0.5 µg/mL highest concentration)
